Results as given in US20230322924A1 (Janssen / Centocor, published 2023).

B1: PS3B63 (bispecific antibody, human IgG4 S228P, kappa, F234A L235A)
heavy: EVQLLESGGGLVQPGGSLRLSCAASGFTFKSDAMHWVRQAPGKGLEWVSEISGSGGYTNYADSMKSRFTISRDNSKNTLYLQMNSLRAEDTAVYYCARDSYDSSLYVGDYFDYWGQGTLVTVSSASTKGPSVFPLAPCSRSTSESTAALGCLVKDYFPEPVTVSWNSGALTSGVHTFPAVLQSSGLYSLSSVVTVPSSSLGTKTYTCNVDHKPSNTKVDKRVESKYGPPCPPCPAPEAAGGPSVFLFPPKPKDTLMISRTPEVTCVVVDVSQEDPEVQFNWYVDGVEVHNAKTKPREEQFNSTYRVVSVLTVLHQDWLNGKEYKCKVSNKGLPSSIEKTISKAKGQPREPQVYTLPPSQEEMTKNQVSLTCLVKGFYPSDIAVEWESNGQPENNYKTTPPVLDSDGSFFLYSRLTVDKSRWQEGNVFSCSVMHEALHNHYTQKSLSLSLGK
light: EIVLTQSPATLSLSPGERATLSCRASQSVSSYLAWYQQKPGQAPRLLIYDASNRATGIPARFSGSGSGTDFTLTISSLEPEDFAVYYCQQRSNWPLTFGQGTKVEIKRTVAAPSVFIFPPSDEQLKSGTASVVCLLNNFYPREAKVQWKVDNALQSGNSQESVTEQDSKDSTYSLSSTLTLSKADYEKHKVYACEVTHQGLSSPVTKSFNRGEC
VH: EVQLVESGGGLVQPGGSLRLSCAASGFTFNTYAMNWVRQAPGKGLEWVARIRSKYNNYATYYAASVKGRFTISRDDSKNSLYLQMNSLKTEDTAVYYCARHGNFGNSYVSWFAYWGQGTLVTVSS
VL: QTVVTQEPSLTVSPGGTVTLTCRSSTGAVTTSNYANWVQQKPGQAPRGLIGGTNKRAPGTPARFSGSLLGGKAALTLSGVQPEDEAEYYCALWYSNLWVFGGGTKLTVL
notes: IgG4 PAA; CD3 arm with F405L, R409K; also called PSMB347 x CD3B219
B2: PS3B64 (bispecific antibody, human IgG4 S228P, kappa, F234A L235A)
heavy: not shown
light: not shown
VH: EVQLVESGGGLVQPGGSLRLSCAASGFTFNTYAMNWVRQAPGKGLEWVARIRSKYNNYATYYAASVKGRFTISRDDSKNSLYLQMNSLKTEDTAVYYCARHGNFGNSYVSWFAYWGQGTLVTVSS
VL: QTVVTQEPSLTVSPGGTVTLTCRSSTGAVTTSNYANWVQQKPGQAPRGLIGGTNKRAPGTPARFSGSLLGGKAALTLSGVQPEDEAEYYCALWYSNLWVFGGGTKLTVL
notes: IgG4 PAA; CD3 arm with F405L, R409K; also called PSMB349 x CD3B219
B3: PS3B70 (bispecific antibody, human IgG4 S228P, kappa, F234A L235A)
heavy: not shown
light: not shown
VH: EVQLVESGGGLVQPGGSLRLSCAASGFTFNTYAMNWVRQAPGKGLEWVARIRSKYNNYATYYAASVKGRFTISRDDSKNSLYLQMNSLKTEDTAVYYCARHGNFGNSYVSWFAYWGQGTLVTVSS
VL: QTVVTQEPSLTVSPGGTVTLTCRSSTGAVTTSNYANWVQQKPGQAPRGLIGGTNKRAPGTPARFSGSLLGGKAALTLSGVQPEDEAEYYCALWYSNLWVFGGGTKLTVL
notes: IgG4 PAA; CD3 arm with F405L, R409K; also called PSMB358 x CD3B219
B4: PS3B71 (bispecific antibody, human IgG4 S228P, kappa, F234A L235A)
heavy: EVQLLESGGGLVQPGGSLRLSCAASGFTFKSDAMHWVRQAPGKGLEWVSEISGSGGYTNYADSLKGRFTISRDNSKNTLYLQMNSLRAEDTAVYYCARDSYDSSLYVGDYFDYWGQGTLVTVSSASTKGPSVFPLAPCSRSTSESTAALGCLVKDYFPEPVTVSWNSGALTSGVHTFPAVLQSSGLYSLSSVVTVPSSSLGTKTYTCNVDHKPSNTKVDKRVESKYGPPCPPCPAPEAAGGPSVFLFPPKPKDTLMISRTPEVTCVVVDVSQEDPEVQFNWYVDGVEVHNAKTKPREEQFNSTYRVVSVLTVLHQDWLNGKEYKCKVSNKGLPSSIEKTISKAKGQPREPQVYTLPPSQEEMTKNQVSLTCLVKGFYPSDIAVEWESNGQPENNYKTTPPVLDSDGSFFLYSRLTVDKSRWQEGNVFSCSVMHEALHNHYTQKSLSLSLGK
light: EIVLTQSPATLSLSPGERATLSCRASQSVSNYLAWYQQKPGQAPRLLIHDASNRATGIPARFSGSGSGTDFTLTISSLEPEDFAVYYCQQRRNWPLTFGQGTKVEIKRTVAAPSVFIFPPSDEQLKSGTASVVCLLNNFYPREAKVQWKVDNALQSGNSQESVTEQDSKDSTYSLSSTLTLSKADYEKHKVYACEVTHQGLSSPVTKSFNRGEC
VH: EVQLVESGGGLVQPGGSLRLSCAASGFTFNTYAMNWVRQAPGKGLEWVARIRSKYNNYATYYAASVKGRFTISRDDSKNSLYLQMNSLKTEDTAVYYCARHGNFGNSYVSWFAYWGQGTLVTVSS
VL: QTVVTQEPSLTVSPGGTVTLTCRSSTGAVTTSNYANWVQQKPGQAPRGLIGGTNKRAPGTPARFSGSLLGGKAALTLSGVQPEDEAEYYCALWYSNLWVFGGGTKLTVL
notes: IgG4 PAA; CD3 arm with F405L, R409K; also called PSMB359 x CD3B219
B5: PS3B72 (bispecific antibody, human IgG4 S228P, kappa, F234A L235A)
heavy: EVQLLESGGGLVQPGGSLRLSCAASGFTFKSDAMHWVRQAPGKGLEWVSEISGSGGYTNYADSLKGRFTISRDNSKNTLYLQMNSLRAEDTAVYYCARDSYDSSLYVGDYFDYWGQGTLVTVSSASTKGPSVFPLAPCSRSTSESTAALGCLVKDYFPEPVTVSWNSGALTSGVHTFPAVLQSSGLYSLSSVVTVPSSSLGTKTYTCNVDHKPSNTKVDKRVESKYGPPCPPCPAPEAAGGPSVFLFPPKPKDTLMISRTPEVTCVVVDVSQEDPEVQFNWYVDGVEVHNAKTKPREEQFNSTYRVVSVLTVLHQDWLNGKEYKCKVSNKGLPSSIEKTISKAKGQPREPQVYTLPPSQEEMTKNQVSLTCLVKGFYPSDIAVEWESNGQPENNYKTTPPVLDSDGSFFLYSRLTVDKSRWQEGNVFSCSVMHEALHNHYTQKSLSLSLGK
light: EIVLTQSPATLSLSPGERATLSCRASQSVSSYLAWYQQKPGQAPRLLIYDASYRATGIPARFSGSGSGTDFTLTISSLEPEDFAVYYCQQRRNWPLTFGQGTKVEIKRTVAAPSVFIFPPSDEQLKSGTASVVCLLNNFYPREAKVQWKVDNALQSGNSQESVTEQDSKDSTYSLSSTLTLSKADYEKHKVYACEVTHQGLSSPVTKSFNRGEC
VH: EVQLVESGGGLVQPGGSLRLSCAASGFTFNTYAMNWVRQAPGKGLEWVARIRSKYNNYATYYAASVKGRFTISRDDSKNSLYLQMNSLKTEDTAVYYCARHGNFGNSYVSWFAYWGQGTLVTVSS
VL: QTVVTQEPSLTVSPGGTVTLTCRSSTGAVTTSNYANWVQQKPGQAPRGLIGGTNKRAPGTPARFSGSLLGGKAALTLSGVQPEDEAEYYCALWYSNLWVFGGGTKLTVL
notes: IgG4 PAA; CD3 arm with F405L, R409K; also called PSMB360 x CD3B219
B6: PS3B73 (bispecific antibody, human IgG4 S228P, kappa, F234A L235A)
heavy: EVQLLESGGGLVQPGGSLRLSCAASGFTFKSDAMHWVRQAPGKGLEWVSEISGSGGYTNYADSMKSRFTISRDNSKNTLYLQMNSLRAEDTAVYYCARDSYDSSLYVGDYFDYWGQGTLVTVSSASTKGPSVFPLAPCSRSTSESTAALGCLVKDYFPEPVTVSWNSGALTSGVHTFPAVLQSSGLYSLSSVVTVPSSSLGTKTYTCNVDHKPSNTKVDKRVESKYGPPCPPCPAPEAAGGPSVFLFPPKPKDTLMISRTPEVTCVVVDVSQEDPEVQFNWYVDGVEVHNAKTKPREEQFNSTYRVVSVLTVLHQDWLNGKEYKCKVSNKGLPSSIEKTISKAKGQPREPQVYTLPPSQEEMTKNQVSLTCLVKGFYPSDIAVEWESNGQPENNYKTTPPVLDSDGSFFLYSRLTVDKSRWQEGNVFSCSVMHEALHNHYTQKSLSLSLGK
light: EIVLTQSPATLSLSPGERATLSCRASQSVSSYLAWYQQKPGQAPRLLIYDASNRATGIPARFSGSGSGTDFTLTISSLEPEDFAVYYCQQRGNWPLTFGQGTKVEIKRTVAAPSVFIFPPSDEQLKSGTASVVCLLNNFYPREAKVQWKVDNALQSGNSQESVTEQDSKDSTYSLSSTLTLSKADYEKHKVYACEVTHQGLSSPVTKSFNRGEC
VH: EVQLVESGGGLVQPGGSLRLSCAASGFTFNTYAMNWVRQAPGKGLEWVARIRSKYNNYATYYAASVKGRFTISRDDSKNSLYLQMNSLKTEDTAVYYCARHGNFGNSYVSWFAYWGQGTLVTVSS
VL: QTVVTQEPSLTVSPGGTVTLTCRSSTGAVTTSNYANWVQQKPGQAPRGLIGGTNKRAPGTPARFSGSLLGGKAALTLSGVQPEDEAEYYCALWYSNLWVFGGGTKLTVL
notes: IgG4 PAA; CD3 arm with F405L, R409K; also called PSMB361 x CD3B219
B7: PS3B74 (bispecific antibody, human IgG4 S228P, kappa, F234A L235A)
heavy: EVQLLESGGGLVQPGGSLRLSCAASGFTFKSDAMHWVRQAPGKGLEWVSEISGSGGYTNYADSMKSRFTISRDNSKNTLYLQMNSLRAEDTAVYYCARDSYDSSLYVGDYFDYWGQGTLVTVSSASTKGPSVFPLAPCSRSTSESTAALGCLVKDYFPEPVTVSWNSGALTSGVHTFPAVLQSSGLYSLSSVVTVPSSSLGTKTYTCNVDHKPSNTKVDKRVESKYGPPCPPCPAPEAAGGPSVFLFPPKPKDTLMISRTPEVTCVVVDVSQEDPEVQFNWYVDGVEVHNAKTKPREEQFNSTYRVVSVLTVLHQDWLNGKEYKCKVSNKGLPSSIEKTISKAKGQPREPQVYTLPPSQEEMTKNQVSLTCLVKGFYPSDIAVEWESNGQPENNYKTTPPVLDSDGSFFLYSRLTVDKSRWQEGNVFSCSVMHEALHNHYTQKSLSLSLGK
light: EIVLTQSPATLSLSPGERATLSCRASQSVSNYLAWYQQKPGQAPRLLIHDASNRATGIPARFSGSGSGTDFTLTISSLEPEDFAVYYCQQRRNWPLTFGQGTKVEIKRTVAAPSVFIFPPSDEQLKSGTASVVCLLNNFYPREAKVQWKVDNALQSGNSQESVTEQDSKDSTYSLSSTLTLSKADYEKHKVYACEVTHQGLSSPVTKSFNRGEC
VH: EVQLVESGGGLVQPGGSLRLSCAASGFTFNTYAMNWVRQAPGKGLEWVARIRSKYNNYATYYAASVKGRFTISRDDSKNSLYLQMNSLKTEDTAVYYCARHGNFGNSYVSWFAYWGQGTLVTVSS
VL: QTVVTQEPSLTVSPGGTVTLTCRSSTGAVTTSNYANWVQQKPGQAPRGLIGGTNKRAPGTPARFSGSLLGGKAALTLSGVQPEDEAEYYCALWYSNLWVFGGGTKLTVL
notes: IgG4 PAA; CD3 arm with F405L, R409K; also called PSMB362 x CD3B219
B8: PS3B75 (bispecific antibody, human IgG4 S228P, kappa, F234A L235A)
heavy: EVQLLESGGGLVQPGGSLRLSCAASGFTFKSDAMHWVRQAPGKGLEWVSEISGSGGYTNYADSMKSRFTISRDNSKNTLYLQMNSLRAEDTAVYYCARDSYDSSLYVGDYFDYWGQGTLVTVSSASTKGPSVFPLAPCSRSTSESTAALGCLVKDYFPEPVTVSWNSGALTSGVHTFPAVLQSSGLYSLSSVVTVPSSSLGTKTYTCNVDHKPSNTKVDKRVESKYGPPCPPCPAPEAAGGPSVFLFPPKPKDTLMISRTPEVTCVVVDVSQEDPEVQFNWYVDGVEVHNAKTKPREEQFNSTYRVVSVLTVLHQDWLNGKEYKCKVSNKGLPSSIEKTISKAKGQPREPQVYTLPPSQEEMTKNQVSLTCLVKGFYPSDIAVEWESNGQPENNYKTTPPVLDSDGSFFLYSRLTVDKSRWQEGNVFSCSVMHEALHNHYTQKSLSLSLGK
light: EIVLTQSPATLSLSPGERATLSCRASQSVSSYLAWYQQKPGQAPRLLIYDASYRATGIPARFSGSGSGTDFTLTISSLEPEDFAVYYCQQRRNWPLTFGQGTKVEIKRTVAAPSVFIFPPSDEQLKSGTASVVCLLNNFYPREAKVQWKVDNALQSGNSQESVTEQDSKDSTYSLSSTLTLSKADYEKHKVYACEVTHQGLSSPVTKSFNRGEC
VH: EVQLVESGGGLVQPGGSLRLSCAASGFTFNTYAMNWVRQAPGKGLEWVARIRSKYNNYATYYAASVKGRFTISRDDSKNSLYLQMNSLKTEDTAVYYCARHGNFGNSYVSWFAYWGQGTLVTVSS
VL: QTVVTQEPSLTVSPGGTVTLTCRSSTGAVTTSNYANWVQQKPGQAPRGLIGGTNKRAPGTPARFSGSLLGGKAALTLSGVQPEDEAEYYCALWYSNLWVFGGGTKLTVL
notes: IgG4 PAA; CD3 arm with F405L, R409K; also called PSMB363 x CD3B219

Each binder was assayed against T1, human PSMA on cells (LNCaP) (human, UniProt Q04609 1-750) (assay: flow cytometry cell binding assay on LNCaP cells).
T1 construct: whole, on cells; also called LNCaP cells
T1 sequence (Q04609 whole entry): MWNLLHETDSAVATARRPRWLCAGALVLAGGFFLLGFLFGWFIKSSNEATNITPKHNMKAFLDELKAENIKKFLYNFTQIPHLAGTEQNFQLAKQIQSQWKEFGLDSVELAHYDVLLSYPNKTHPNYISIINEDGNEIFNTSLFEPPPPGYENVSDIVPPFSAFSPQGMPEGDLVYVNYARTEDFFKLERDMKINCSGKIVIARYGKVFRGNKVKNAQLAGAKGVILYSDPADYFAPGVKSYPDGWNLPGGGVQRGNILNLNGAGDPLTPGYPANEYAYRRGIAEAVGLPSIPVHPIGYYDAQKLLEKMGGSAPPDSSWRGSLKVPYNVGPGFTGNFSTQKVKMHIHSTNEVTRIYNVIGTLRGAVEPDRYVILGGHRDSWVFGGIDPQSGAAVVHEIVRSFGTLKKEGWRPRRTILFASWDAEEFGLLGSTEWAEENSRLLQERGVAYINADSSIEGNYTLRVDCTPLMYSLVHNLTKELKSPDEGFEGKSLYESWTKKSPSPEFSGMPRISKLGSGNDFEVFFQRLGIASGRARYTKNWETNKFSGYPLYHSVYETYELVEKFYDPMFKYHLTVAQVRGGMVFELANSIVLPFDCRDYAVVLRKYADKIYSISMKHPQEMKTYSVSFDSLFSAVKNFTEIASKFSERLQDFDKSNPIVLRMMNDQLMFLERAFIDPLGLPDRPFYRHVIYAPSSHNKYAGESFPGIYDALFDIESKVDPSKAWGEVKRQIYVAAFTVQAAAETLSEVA
Procedure: PSMA×CD3 bispecific antibodies were tested for binding to PSMA positive cell line, LNCAP, to PSMA negative cell line, PC3. To assess the binding capabilities of the PSMA bispecific antibodies, the cell-binding assay was utilized (described previously). Bispecific antibodies were normalized for protein concentration and then incubated with the same number of cells expressing either human or cyno PSMA. The MFI at each concentration was collected by flow cytometry and plotted as a function of concentration. Data was transformed via log 10 and then plotted. Nonlinear regression of binding curves was done to determine EC50s.
For B1, the “EC50 (read off the curve)” value was ~2 nM. B2: binds. B3: binds. With B4 the “EC50 (read off the curve)” value was ~8 nM. B5: binds. B6: binds. B7: binds. B8: binds.
